Patent publication US20160327558A1
Primed or numbered codes have the meaning given here. The star is where a group is joined. AOMK(3) = acyloxymethyl ketone at C-terminal Arg; Biotin = O=C1N[C@H]2[C@H](CS[C@H]2CCCCC(=O)*)N1

Assays:
[1] = target: active endogenous MALT1 (stimulated Jurkat T cells, stimulated primary human PBMCs and T cells, ABC DLBCL cells) (human) (UniProt Q9UDY8); test: ELISA-type assay on streptavidin-coated plates, 2×10^6 Jurkat T cells
[2] = target: active endogenous MALT1 (stimulated Jurkat T cells, stimulated primary human PBMCs and T cells, ABC DLBCL cells) (human) (UniProt Q9UDY8); test: probe 7 pulldown with streptavidin beads; supernatant tested with probe 6

probe concentration sufficient to obtain a robust increase in active MALT1 [1]: < 10 nM
probe concentration sufficient to completely remove active MALT1 from the extracts [2]: 100 nM
B1: probe 7 (biotin-coupled; Ac-Lys(biotin)-LRSR-AOMK) (peptide)
peptide: Ac-K(Biotin)LRSR-{AOMK(3)}
